# The supplement of paper PMC12042874
# ± gives the uncertainty stated by the source.
# Assay: amyloid nucleation score (Sup35N fusion, yeast selection) (log enrichment); library NNK2; higher = more nucleation; inactive = no reads after selection
# Summary of the method: (§1)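 For the nucleation score, DiMSum gave the log enrichment of output over input reads, centred on the mode score of non-aggregating sequences. Psi-negative yeast expressing Sup35N fused to peptides of 20 random codons were induced with 100 μM copper sulfate for 24 hours and grown 7 days at 30°C on medium lacking adenine and uracil. Input and output plasmid inserts were Illumina-sequenced, and sequences with under 100 input reads were excluded.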
row,Substance,amyloid nucleation score
1,YGLPYEVLFNHSHTSNRAYS,-0.532 ± 0.43
2,YGLWVYMNWLVSLRSLLTRI,inactive
3,YGPYSLSSF,-0.105 ± 1.1
4,YGQAMWASIFMIYRLPKTLR,-1.13 ± 0.28
5,YGQMVLRPFDTFVARQ,-1.05 ± 0.48
6,YGRSTHPGSRSF,-1.25 ± 0.63
7,YGWRSRYVPCPAGRRCVMSQ,0.53 ± 0.2
8,YHITSSLWVDDIHVLLNMGP,0.328 ± 0.42
9,YHNCNQHSWYRMRCFG,-0.417 ± 1.1
10,YHPTLVLGYQLTLLFMAFL,0.613 ± 0.74
11,YHRSCFWDYLISDGLKQACH,-1.51 ± 0.78
12,YICMLLDKPRFLSRSSRSLV,inactive
13,YIELMGHWVGTSRKCVSDRS,-0.243 ± 1.1
14,YIGCNNYEGKNKCVIFLSFS,6.079 ± 0.05
15,YIGQVGYRCSAVGQSYSRPG,1.87 ± 0.47
16,YIRIYRVTMRFNCINVAPWG,6.928 ± 0.048
17,YITFLVWFQNFGYTGHD,7.162 ± 0.062
18,YIVACSWYSGLLGLVGYRRK,7.884 ± 0.036
19,YKLYTFCKSRMHVPAYGFSY,-1.96 ± 1.1
20,YKRCYIKIEWFQMCFNVVTR,inactive
21,YKVLSISLIVDTFARLYYAL,-0.921 ± 0.54
22,YLCAFVRWWYR,-0.029 ± 1.1
23,YLCPTSGKLCGSSGKTMVTV,-1.18 ± 0.48

row,Substance,amyloid nucleation score
1,YLFSLKQLWF,5.06 ± 0.078
2,YLGRHDYKSVGGSFIPRQSK,-0.661 ± 1.1
3,YLGTF,0.187 ± 0.56
4,YLIIKCDKRCVEDFDALLE,4.4 ± 0.071
5,YLIISMRFISSTQYRFFSVH,0.498 ± 0.19
6,YLPFMWCCMIWWAGGVCRL,-0.143 ± 0.76
7,YLSTFVGTVHDSHTCRFCWN,3.79 ± 0.13
8,YLSTGNNMFLNVQDSQGA,1.36 ± 0.13
9,YLTSINLRVGGSWLCNNGRM,1.96 ± 0.14
10,YLVELNV,0.344 ± 0.56
11,YLVNNAEMVNMELMISVSGA,-0.337 ± 0.38
12,YMERIYRWYSQCNRCQVRLW,-0.644 ± 0.54
13,YMLTKYRYS,0.734 ± 0.81
14,YMSARVMFGGEPCCCGSGGE,1.74 ± 0.27
15,YMSATVRCIYSRLY,3.05 ± 0.13
16,YMSGGVRKGPIAKALNFVRS,-0.854 ± 0.56
17,YMYDVRICPFDNWVYRRNEC,-0.107 ± 0.74
18,YMYFRVFDS,0.525 ± 0.34
19,YNESVHANVYVLLILKGLES,6.621 ± 0.048
20,YNFGEFACYHH,3.81 ± 0.099
21,YNFRSSLRNGYKEVRGVQYG,5.221 ± 0.043
22,YNGMAHGCHVGASSRRLE,0.117 ± 0.32
23,YNGPLHYDRNDSSVKQSVFI,inactive

row,Substance,amyloid nucleation score
1,YNIWL,2.49 ± 0.12
2,YNKSSYE,-1.47 ± 1.1
3,YNQFNFFTG,6.913 ± 0.045
4,YNRGMQLIAVVL,0.725 ± 0.39
5,YNSSCCSERSYLLSVFRISR,0.178 ± 0.17
6,YNSYVVRMGTI,-0.417 ± 1.1
7,YNVMHRPGGWDFMYGNWMLG,4.63 ± 0.063
8,YNYVPLDFVRPVSDWSLELR,-0.405 ± 0.39
9,YPEDEFFQHRRWKRILSWDV,inactive
10,YPITPFQA,-0.872 ± 1.1
11,YPNLFS,0.522 ± 0.74
12,YPTASVTATSHTFILSSNKN,3.48 ± 0.063
13,YQKCTRIFQILCGSACLKTR,-0.649 ± 0.64
14,YQLLLFV,-0.969 ± 0.41
15,YQMISDSPNINIFYGFYSET,inactive
16,YQTYF,-1.08 ± 0.41
17,YQVFSQLEMRTYCKGKDFTL,4.724 ± 0.038
18,YRFKLFTHRYILFNWVFLLL,inactive
19,YRILSNASWTFAVVQSCNPY,5.789 ± 0.047
20,YRINEDET,-1.55 ± 0.41
21,YRLNVNKSSNQGV,-0.712 ± 0.45
22,YRLYDRENSAICYISYTLLL,2.36 ± 0.069
23,YRMCLLRYT,-0.936 ± 0.55

row,Substance,amyloid nucleation score
1,YRMLSIKCGM,-0.707 ± 0.79
2,YRNCLPMGGNALS,-0.964 ± 1.1
3,YRPITRMCSWDRNSLWWSRY,-0.582 ± 0.54
4,YRRQPS,0.174 ± 0.56
5,YRRYVLTL,0.057 ± 0.76
6,YRSFCWEQ,-0.581 ± 0.56
7,YRSSLRHFSVYSYNSFSELL,0.626 ± 0.65
8,YRVSIMYDAWDGLARWFYRR,0.507 ± 0.46
9,YRWVHLEFGARLAFQSVKNI,0.241 ± 0.8
10,YRYPRCRVRLVS,-0.822 ± 0.35
11,YSAFHSMENQTRKMFMEPLP,-0.311 ± 0.79
12,YSDMSFAVALAVSWVQAGAW,-0.618 ± 0.63
13,YSENNLIG,inactive
14,YSERSTEGQ,0.698 ± 0.26
15,YSEWSSTRPQFRTLNHEWLL,0.498 ± 0.74
16,YSISNPYACFSNVQSFLLYN,2.65 ± 0.15
17,YSKTLERVDSSVD,1.26 ± 0.38
18,YSLFTT,-0.451 ± 0.76
19,YSLLCWVYIRSLNSLNKCCG,3.15 ± 0.075
20,YSLTYLAFSFQKNNTIFLTY,0.358 ± 0.65
21,YSMVIY,-0.014 ± 0.76
22,YSMWGYCISPNKHVYFTHGR,-0.421 ± 0.78
23,YSRTQENNAGLSYIACTGRR,0.168 ± 0.56

row,Substance,amyloid nucleation score
1,YSSNGPGEKWRYR,2.04 ± 0.09
2,YSYRVRI,3.71 ± 0.056
3,YTMASLS,1.74 ± 0.13
4,YTNAFRPRSVRLTVIRIGQY,4.07 ± 0.11
5,YTRKVSAG,-0.063 ± 0.36
6,YTRNIHMHFHRMLPNVGMAF,inactive
7,YTYSHAYPRWTMFIWWHDLE,-0.378 ± 0.31
8,YTYTQTR,0.25 ± 0.48
9,YVAILFRFRRSIMFNLLIQM,-0.318 ± 0.8
10,YVCCR,0.565 ± 0.46
11,YVDVGC,0.513 ± 0.52
12,YVEFCFLTCSASGLAWSLRW,0.053 ± 0.31
13,YVFLEGFNRVFDHVACIGLK,-0.721 ± 0.35
14,YVGEKRGSVSEYLLHLLSTG,inactive
15,YVGHRTMMKFTIIVIYYMYP,-1.5 ± 1
16,YVKSRHTNYDGRSTLL,3.12 ± 0.13
17,YVKVVFCFDLAAMTSRRFYE,0.228 ± 1
18,YVLELKG,2.75 ± 0.062
19,YVLSRDRSWIHGGVGELGAW,0.969 ± 0.53
20,YVNVL,0.479 ± 0.49
21,YVPPIGGNRHAHLVASCLGS,0.434 ± 0.21
22,YVQRNNARVTLGGTHSFRSV,3.83 ± 0.068
23,YVSHLMFKVSGLPWLGRCNY,4.78 ± 0.087

row,Substance,amyloid nucleation score
1,YVTVTNGMI,-0.447 ± 0.61
2,YVVSQTVRWF,inactive
3,YWANGSDEDSVGGNIDAVGD,-1.07 ± 0.55
4,YWKGNTRIGQVLFYTLSCKT,0.389 ± 0.8
5,YWKPCLVAVGWSTQLRCCPV,-0.324 ± 0.3
6,YWLSRSWHWKKLFGGWFALL,0.016 ± 0.54
7,YWVFI,-0.115 ± 0.56
8,YWVYAGIGVRMCNRVYNNLR,0.336 ± 0.3
9,YWWCRPILILCSNLDDVWSL,7.6 ± 0.079
10,YYDSYPVT,0.013 ± 0.28
11,YYFNEREK,inactive
12,YYHCPTSFFYIV,inactive
13,YYIMCFSSGCDPLPQHCGWE,-0.821 ± 1.1
14,YYIQHHSF,3.37 ± 0.082
15,YYKQWG,inactive
16,YYLNSTSGKDR,inactive
17,YYLPLGYDWPWSYSKCSNTR,4.04 ± 0.072
18,YYMKVVMVDTQTQV,inactive
19,YYQRLRVHLYADIELYATLC,0.266 ± 0.6
20,YYSDVGVYSVRGYLLWS,-0.447 ± 0.61
21,YYSKNAVVWVNGCVRRVMII,0.127 ± 0.63
22,YYVAIVSLWSGVKYVMVKFA,-1.07 ± 0.78
23,YYWTPCGVCITFVGCNVILY,8.499 ± 0.022

# Assay: amyloid nucleation score (Sup35N fusion, yeast selection) (log enrichment); library NNK1; higher = more nucleation; inactive = no reads after selection
# Summary of the method: as §1
row,Substance,amyloid nucleation score
1,AAALRIIGHYMRALLTELLQ,0.687 ± 0.46
2,AALWHFNFINRSFRTVGPAG,-0.569 ± 0.38
3,AAPRWSYEAASANAMLFVIL,2.89 ± 0.25
4,ACFEFKLGTFRLGAALNYPG,1.03 ± 0.31
5,ACLSNGKWKYPLGYESSLRR,-0.968 ± 1.1
6,ACNCHMWV,1.31 ± 0.59
7,ACPDHMRV,1.33 ± 0.62
8,ACRDVGHSVVLCKFKS,-1.01 ± 1.4
9,ADACVRFLRGYYFNGFPMRW,1.03 ± 0.9
10,ADCGRSVLTKVKRCDTFFSG,0.023 ± 0.27
11,ADDGAVLCRCEAGGTSWSVC,inactive
12,ADFVSFSSFYFWWHVVSLDT,0.238 ± 0.56
13,ADILWARFLWMSEGIH,0.054 ± 0.23
14,ADLRVFHYRYFGS,-0.223 ± 0.49
15,AEASKYVMYIKARCMQLMRS,-0.931 ± 1.1
16,AEKSFWHSSNPFIALPRTHR,-1 ± 0.93
17,AFCIFCSRLAEIAHLAF,7.133 ± 0.046

row,Substance,amyloid nucleation score
1,AFCNVADCNIRGSWLVRLRR,1.21 ± 0.41
2,AFCRCNNRKVEQLMNLCGVF,-0.771 ± 0.49
3,AFFPGNFWACGSFDFLWYWL,3.38 ± 0.083
4,AFFYVVCFDVCKMSTMYLFG,-2.44 ± 2.4
5,AFHLTSSSLFLFSWNSWVAV,5.3 ± 0.082
6,AFIKNLTLCLDWTHSGAVYM,7.24 ± 0.08
7,AFKNAAGMRGMTWISSEVGA,0.145 ± 0.42
8,AFLMMSTVAPTLWMIMPSYS,0.446 ± 0.48
9,AFMSRVGLHW,0.691 ± 0.25
10,AFNSFIGFHCPSDVWCMKRN,5.25 ± 0.051
11,AFRTS,-0.203 ± 0.43
12,AFRYDRVWVGQQLFGQECRP,0.054 ± 0.46
13,AFVEGRMNHPYSGTMLSRRG,0.418 ± 0.53
14,AFYGVDFSSGRGLFSY,-0.574 ± 1.1
15,AGDTGFTHTYSCWIKQWFVF,0.705 ± 0.47
16,AGECRYLLMSVDGYIGLNLV,1.07 ± 0.48
17,AGHYLCGSITNLTA,0.721 ± 0.97
